Source: publication PMC8391806 (2021)

Molecular target: p38α kinase (residues 1–360 of human p38α) (human, UniProt Q16539 1-360)
Test: ITC

p38α kinase (residues 1–360 of human p38α), sequence (Q16539 whole entry, the tested form may be a part): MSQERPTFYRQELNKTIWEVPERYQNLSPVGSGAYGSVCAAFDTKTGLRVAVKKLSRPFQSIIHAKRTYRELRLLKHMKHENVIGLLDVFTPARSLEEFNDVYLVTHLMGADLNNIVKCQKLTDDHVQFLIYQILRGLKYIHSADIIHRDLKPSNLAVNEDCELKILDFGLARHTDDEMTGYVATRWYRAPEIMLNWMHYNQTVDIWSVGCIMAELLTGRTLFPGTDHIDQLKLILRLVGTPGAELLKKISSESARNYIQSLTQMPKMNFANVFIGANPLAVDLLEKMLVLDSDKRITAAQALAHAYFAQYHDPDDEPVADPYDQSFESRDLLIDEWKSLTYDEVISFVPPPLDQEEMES

- Kd: 4.1 µM
B1: regulatory domain of MKK4 (residues 12–86) with N-terminal thioredoxin and 6xHis tag, unlabeled, for ITC (domain or fragment)
chain: SGGGSGSGTPGPVGSPAPGHPAVSSMQGKRKALKLNFANPPFKSTARFTLNPNPTGVQNPHIERLRTHSIESSGK
